Drawing on PMC7532634, this text covers Kd and binding for two substances.

Experiment in all cases: EMSA
Background: In EMSA bound probe runs differently from free probe, usually more slowly.

Data set [1] concerns MsrR (Corynebacterium glutamicum). Conditions: no oxidant; apparent KD; 10 mM Tris-HCl pH 7.4 (Fig 4 legend says pH 8.0 for the H2O2/DTT test), 5 mM MgCl2, 50 mM KCl, 5% glycerol, 0.1% NP40, 1 ug poly(dI:dC), 40 ng DNA in 20 ul ….
The subject of data set [2] is MsrR:C62S (Corynebacterium glutamicum). Conditions: no H2O2; unit inferred, nM from context; apparent KD; 10 mM Tris-HCl pH 7.4 (Fig 4 legend says pH 8.0 for the H2O2/DTT test), 5 mM MgCl2, 50 mM KCl, 5% glycerol, 0.1% NP40, 1 ug poly(dI:dC), 40 ng DNA in 20 ul ….
The subject of data set [3] is T1, MsrR:C62S C62S (Corynebacterium glutamicum), ORF:1371e9c5.
T1 sequence: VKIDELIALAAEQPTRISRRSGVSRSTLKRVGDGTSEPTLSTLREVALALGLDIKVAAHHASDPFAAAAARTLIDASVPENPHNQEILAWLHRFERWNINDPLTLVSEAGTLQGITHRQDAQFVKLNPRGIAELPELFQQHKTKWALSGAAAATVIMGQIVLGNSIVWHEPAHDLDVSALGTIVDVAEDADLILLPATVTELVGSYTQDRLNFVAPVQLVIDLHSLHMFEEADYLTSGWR
Conditions: 10 mM Tris-HCl pH 7.4 (Fig 4 legend says pH 8.0 for the H2O2/DTT test), 5 mM MgCl2, 50 mM KCl, 5% glycerol, 0.1% NP40, 1 ug poly(dI:dC), 40 ng DNA in 20 ul ….

Regarding PmsrR, the Kd stood at 17 nM in data set [1] and 23.1 nM in data set [2].
As for “GTGGACACGGGGTGTCTCCTAAAGATGGGGAGCAAAAACCCTCAAACTGCTGCTAAAAATACAGGATTGGCGCCCGTGACGCTACTGAAAAGGTGGAGGGGCGCGTCGAAAAGCGTTGGCCGGTGCCTGAGCGAAAAACCGTGATGATTAGCATGGTTTGTT (double strand) [PmsrR]”, in data set [3], the Kd amounted to 23.1 nM and the binding entry was “binds”.
